These are literature values, as cited in patent publication US20220033450A1, “VIRALLY EXPRESSED INHIBITORS OF PDZ DOMAINS, SUCH AS PICK1 AND USES THEREOF” (University of Copenhagen, priority 2018, published 2022).

This data set addresses T1, PDZ3 of PSD-95 (Homo sapiens, UniProt P78352).
T1 construct: specificity towards PDZ3 over PDZ 1 and 2 in PSD-95 (Toto et al. 2016)
As to conditions: Toto et al. 2016; 'supposedly'.

T1 sequence (P78352 313-393 limits assumed): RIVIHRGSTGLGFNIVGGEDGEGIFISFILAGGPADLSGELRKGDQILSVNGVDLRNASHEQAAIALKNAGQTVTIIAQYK

As to YKQTSV, the “specificity towards PDZ3 over PDZ 1 and 2 in PSD-95” value is recorded as > 15 fold.
